The target in assay [1] is Isoform H17 of Myeloperoxidase precursor (human) (UniProt P05164). Briefly: BiP-Sepharose pull-down, RA synovial fluid sample 4B, 1 M NaCl eluate, MS; may be indirect.
Assay [2] deals with IGHM protein, coagulation factor VII (serum prothrombin conversion accelerator) (human) (UniProt P08709). The description is as above.
Assay [3] has as its target Hypothetical protein/Heat shock 70 kDa protein 5 (glucose-regulated protein, 78 kDa = GRP78 = BiP = HSPA5), as identified in eluates (human) (UniProt P11021). Briefly: BiP-Sepharose pull-down, RA synovial fluid sample 1B, 1 M NaCl eluate, MS; BiP may stem from the column.
Assay [4] has as its target fibronectin 1 isoform 4 preproprotein (human) (UniProt P02751). Briefly: BiP-Sepharose pull-down, RA synovial fluid sample 2B, 1 M NaCl eluate, MS; may be indirect.
Assay [5] concerns the target Neutrophil defensin 1 precursor (human) (UniProt P59665). Described as above.
The target in assay [6] is Clusterin precursor (human) (UniProt P10909). The assay is described as above.
Assay [7] has as its target Hypothetical protein DKFZp686I04196 (Fragment)/Immunoglobulin heavy constant gamma 2 (G2m marker)/Ig gamma-2 chain C region (human) [IgG part: P01859]. Described as above.
Assay [8] concerns the target Histidine-rich glycoprotein precursor (human) (UniProt P04196). The assay is described as above.
Assay [9] deals with Heat shock 70 kDa protein 1L (human) (UniProt P34931). The description is as above.
Assay [10] concerns the target Hypothetical protein/Heat shock 70 kDa protein 5 (glucose-regulated protein, 78 kDa = GRP78 = BiP = HSPA5), as identified in eluates (human) (UniProt P11021). Briefly: BiP-Sepharose pull-down, RA synovial fluid sample 2B, 1 M NaCl eluate, MS; BiP may stem from the column.
The target is the same in assay [11]. Briefly: BiP-Sepharose pull-down, RA synovial fluid sample 4B, 1 M NaCl eluate, MS; BiP may stem from the column.

Chain of Hypothetical protein/Heat shock 70 kDa protein 5 (glucose-regulated protein, 78 kDa = GRP78 = BiP = HSPA5), as identified in eluates (human) (P11021 19-654 limits assumed): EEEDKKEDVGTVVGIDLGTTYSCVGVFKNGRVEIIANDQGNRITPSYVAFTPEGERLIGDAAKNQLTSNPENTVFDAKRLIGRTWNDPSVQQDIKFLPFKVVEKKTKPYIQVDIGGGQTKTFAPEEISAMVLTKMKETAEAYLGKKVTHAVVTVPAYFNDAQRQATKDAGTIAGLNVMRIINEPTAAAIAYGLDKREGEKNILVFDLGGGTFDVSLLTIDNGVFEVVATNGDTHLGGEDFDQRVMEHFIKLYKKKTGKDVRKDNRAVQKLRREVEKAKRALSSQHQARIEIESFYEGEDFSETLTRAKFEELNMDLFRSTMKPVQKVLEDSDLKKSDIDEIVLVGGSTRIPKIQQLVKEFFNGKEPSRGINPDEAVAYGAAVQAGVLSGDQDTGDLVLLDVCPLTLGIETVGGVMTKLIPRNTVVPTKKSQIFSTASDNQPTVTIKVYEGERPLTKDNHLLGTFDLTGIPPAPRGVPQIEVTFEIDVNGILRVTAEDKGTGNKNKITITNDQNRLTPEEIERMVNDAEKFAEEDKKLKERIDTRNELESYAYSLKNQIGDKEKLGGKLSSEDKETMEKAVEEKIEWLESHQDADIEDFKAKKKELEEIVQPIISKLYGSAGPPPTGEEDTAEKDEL
Chain of Heat shock 70 kDa protein 1L (human) (P34931 whole entry): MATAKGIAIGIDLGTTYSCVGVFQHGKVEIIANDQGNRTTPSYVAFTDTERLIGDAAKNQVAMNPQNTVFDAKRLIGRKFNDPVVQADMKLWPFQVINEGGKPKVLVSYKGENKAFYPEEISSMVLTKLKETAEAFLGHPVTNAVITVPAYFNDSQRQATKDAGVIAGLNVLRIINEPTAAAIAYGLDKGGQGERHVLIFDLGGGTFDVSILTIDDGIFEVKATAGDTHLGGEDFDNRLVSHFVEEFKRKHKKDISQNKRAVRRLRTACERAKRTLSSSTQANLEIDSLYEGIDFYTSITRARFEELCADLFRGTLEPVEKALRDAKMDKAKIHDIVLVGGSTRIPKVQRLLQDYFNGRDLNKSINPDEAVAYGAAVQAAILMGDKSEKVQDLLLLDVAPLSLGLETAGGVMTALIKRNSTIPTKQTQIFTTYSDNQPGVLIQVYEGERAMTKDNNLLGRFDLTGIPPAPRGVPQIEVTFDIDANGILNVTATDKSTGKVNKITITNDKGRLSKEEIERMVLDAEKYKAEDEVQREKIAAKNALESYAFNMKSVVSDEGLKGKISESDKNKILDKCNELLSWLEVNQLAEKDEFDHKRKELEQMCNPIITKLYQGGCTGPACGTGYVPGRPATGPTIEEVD
Chain of fibronectin 1 isoform 4 preproprotein (human) (P02751 other isoform, or with tags, fused parts or gaps limits assumed): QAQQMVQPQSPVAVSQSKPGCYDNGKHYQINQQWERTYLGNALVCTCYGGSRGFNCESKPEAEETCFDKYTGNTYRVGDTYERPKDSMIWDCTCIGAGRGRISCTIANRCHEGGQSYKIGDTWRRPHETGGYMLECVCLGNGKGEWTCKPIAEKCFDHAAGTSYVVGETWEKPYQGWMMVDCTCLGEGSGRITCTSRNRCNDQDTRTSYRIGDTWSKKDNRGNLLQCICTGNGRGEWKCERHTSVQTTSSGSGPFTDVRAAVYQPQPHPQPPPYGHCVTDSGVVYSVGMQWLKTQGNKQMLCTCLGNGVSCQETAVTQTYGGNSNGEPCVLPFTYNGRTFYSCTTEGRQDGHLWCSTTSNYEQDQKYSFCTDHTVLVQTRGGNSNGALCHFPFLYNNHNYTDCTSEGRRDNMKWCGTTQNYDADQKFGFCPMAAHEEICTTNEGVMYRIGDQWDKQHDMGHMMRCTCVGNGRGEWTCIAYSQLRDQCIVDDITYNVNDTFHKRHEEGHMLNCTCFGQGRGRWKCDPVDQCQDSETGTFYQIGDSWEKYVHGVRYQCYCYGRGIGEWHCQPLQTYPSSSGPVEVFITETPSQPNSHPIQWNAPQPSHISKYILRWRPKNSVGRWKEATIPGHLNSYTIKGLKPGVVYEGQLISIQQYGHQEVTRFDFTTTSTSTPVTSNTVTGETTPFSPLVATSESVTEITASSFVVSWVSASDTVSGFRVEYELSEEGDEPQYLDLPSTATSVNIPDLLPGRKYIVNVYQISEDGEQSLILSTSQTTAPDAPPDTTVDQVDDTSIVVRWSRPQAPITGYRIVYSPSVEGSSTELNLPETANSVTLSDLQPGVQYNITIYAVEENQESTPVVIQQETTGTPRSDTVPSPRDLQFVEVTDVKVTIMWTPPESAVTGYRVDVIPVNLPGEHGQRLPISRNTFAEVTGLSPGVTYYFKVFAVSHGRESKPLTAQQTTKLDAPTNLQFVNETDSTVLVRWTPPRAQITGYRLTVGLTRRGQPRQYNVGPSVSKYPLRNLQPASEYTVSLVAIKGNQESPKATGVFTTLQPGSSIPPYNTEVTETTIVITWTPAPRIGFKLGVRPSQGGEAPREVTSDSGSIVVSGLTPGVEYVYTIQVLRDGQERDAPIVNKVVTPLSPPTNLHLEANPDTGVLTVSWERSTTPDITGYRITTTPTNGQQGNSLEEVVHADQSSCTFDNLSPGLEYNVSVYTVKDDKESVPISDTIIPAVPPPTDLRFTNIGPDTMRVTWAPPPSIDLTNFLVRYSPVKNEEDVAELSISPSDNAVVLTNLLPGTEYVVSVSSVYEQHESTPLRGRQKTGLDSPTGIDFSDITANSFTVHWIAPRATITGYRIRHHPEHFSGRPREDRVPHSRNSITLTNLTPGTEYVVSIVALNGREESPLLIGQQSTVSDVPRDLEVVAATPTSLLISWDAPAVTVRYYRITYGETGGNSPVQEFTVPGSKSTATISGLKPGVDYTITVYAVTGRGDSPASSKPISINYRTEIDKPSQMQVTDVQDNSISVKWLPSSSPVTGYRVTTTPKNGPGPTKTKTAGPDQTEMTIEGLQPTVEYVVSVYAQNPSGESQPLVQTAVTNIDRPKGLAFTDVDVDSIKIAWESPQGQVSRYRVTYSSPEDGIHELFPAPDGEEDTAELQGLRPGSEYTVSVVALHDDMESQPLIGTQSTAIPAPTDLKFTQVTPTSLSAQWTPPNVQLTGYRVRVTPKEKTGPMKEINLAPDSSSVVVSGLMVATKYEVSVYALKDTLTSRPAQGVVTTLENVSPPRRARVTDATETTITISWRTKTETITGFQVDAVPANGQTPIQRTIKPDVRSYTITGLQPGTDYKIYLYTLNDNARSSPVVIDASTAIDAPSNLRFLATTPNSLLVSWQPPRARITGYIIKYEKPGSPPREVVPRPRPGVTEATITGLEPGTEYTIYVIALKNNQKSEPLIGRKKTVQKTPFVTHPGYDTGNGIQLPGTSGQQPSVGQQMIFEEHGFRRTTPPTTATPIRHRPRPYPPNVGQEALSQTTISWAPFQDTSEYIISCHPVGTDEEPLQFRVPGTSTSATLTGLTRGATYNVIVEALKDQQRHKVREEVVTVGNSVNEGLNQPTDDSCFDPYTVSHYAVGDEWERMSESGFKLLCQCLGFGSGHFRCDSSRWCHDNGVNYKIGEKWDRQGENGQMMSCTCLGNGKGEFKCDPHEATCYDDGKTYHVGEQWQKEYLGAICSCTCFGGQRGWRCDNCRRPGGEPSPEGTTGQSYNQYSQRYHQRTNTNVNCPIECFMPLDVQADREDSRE
Chain of Neutrophil defensin 1 precursor (human) (P59665 65-94 limits assumed): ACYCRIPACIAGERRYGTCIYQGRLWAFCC
Chain of Clusterin precursor (human) (P10909 23-449 limits assumed, form in doubt): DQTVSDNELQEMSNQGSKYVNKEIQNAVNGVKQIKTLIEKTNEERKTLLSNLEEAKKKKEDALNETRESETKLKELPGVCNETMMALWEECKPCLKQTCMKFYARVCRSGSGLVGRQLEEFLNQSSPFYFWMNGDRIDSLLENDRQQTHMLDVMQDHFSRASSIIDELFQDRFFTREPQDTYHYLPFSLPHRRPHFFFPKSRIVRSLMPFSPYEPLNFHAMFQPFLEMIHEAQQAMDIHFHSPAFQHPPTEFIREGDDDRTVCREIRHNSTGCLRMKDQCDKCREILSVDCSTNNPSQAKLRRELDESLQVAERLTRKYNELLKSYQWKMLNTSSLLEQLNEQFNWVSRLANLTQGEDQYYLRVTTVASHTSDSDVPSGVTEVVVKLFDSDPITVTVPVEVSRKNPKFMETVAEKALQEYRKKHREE
Chain of Histidine-rich glycoprotein precursor (human) (P04196 19-525 limits assumed): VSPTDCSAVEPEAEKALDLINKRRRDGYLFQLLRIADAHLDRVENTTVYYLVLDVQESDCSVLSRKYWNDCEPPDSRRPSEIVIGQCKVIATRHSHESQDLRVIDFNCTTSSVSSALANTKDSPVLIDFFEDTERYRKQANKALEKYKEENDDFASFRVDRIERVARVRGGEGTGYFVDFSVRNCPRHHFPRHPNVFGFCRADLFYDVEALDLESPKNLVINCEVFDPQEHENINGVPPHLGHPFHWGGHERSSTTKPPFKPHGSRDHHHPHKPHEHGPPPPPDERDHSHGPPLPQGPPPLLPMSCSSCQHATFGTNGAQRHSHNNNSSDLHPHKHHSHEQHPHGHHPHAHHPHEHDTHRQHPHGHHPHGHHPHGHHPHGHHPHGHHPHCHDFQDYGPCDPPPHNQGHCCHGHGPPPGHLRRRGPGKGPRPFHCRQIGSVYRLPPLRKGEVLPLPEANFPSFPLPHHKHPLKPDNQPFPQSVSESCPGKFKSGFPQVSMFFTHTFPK
Chain of Hypothetical protein DKFZp686I04196 (Fragment)/Immunoglobulin heavy constant gamma 2 (G2m marker)/Ig gamma-2 chain C region (human) [IgG part: P01859] (P01859 other isoform, or with tags, fused parts or gaps limits assumed): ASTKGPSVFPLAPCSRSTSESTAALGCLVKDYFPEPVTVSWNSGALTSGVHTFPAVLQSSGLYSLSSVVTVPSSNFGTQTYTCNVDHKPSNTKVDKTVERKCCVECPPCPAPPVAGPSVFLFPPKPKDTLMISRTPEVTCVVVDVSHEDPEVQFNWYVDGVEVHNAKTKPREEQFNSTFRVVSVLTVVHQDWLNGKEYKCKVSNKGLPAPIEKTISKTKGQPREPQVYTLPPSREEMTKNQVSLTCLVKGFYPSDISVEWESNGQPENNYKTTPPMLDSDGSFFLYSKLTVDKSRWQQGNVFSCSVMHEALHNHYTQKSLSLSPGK

Take “recombinant human BiP with C-terminal linker, FLAG-tag and His-tag (BiP-FLAG-His) (from UniProt P11021 19-654)”: the # of unique peptides was found to be 1 peptides in [1]; 1 peptides in [2]; 21 peptides in assay [3]; 2 peptides in assay [4]; 1 peptides in [5]; 1 peptides in assay [6]. For the same substance, the # of unique peptides stood at 1 peptides in assay [7]; 1 peptides in assay [8]; 1 peptides in assay [9]; 12 peptides in assay [10]; 10 peptides in assay [11].

The record behind these values is US20100015126A1, “Methods of Binding of Cross-Beta Structures By Chaperones” (priority 2006, published 2010).
